According to patent US20240016923A1:

Experiments:
[1] = target: secreted E2 ectodomain (sE2), HCV E2 residues 384-661 (Hepatitis C virus, isolate H77C) (UniProt P27958); experiment: SPR (Biacore T200); sE2 amine-coupled to a CM5 chip, CD81-LEL injected; 1:1 model, Kd = koff/kon
[2] = target: secreted E2 ectodomain (sE2), HCV E2 residues 384-661 (Hepatitis C virus, isolate H77C) (UniProt P27958); experiment: SPR (Biacore T200); sE2 amine-coupled to a CM5 chip, CD81-LEL injected; 1:1 model

B1: CD81 large extracellular loop (CD81-LEL) (receptor, UniProt P60033 113-201, looked up, not shown: small tags and cut ends)
chain: FVNKDQIAKDVKQFYDQALQQAVVDDDANNAKAVVKTFHETLDCCGSSTLTALTTSVLKNNLCPSGSNIISNLFKEDCHQKIDDLFSGK
Kd [1]: 7 nM
koff [2]: 0.00045 s⁻¹
kon [2]: 65000 M⁻¹ s⁻¹
